Data on 2 variants can be found in paper PMC5415106.

B1: GST-Dpb11-wild-type [budding yeast] / PKA-Sld2T84D [modified: 32P-phosphate on the artificial PKA site; 32P-phosphate on the artificial PKA site] [budding yeast] (parent)
chain 1: MKPFQGITFCPTAINNEILAKKISKKIIKLGGIFSKDLTRQVNVLVVGSTTNTNKFKFAVKHRFDIIFIDIQAIDDIYQLWLSGENILPDSNTATMTGSTYEMLKILYRRFSFKYLHNFNIFIGRITDTNITSIDSLVRSIKKLGCSSYNYQNFVIKDTSSHNDDDDQGQNGQISIFVTDTLLGARVNAAIEQNIPIVHFKWILDCQKRSALLPYDPYYLLPNIKDLPYDSIGSNSCDCWDKINTTFPTNIDAQSSLQRQQSSSTLTPSLPKTSSLLNKFKPKGEKIWDKAMSLQQHSKTNFSVLGQSPLSINNKQEDLSDNSTLIFKNCAFIIHHIFPGNHRSILTKIVVQNGGKIETSYLSGIYDHSYYIIPSNKALDSFNDLPEIIDDNDGIVTEFFIERCLYYQKLLHPIDLWSKPFLSTIEFQVSSSSKLLHHEFSSSPFLNVTITGFSGVELLHLTKVLNLLKPMGINYVEYLNKSTDILLINLAALPSIPKTHPLWSNEFSDLFTQFCINNNNDDPGDNNRKDFQNNSILRNSMKRKIEYIKKFHSIPVVTPAFIFKLLSAASGENNEIFLNNIKWCIICPRGHKDDFKCKIKKPYYTSISSEKKYQNNDPKIDKTILLKRNNSSLSEHSMKDTKNELLQKIRETDSGRKKRSVSSSIMDVSSERQMPDTKRIKLESLPKNFVPKQIKRTTSWGTIMSENVPTEQPTAISNPEEIPRTEEVSHTQVTYGSIQDKKRTASLEKPMRRQTRNQTKELDS
chain 2: MYSFELDKLKIELKTWEHDFIDKNKREPTRDDIKSLRTVRQMYKQYSTLKKKQSLQRQKVDTQESVELPAHKKDHDEVVEIGPDPQVYGKAISIFDMNLSPIKPIYMTFTNNIDVNNDNSKTISNESSPRKTILLKSSPADRTLVAEPISSVKRQLNFQMLNASSTRTPTSSPCKNRNGKLVEIKKCSPTINPPLESGKPSGYYGPNSPLKLDEENIHLNISLNSSTKRRLQIAYPSLQKTPSKDQADISTSFSPSPLIRRPLTKSLIELAREHTEIVKEFGVLQEEDIEEEEEGEEGENGYDEKNHEDDFGLEDELIRPKVVKDIFQEDDDNDDSQAREDTFIRKRPKRRKVIRRLRDNDPETETAGFERDVHKELVKLKRRKVAEFLGSTSQISDTEFEHDPEASSGVVSSEQKPTAKRKGRKKYNLVSNNFRRLKLPKKNRFSNGRWGRR
B2: GST-Dpb11-wild-type [budding yeast] / Cdc45 (purified, radiolabelled) [budding yeast] (parent)
chain 1: B1 chain 1
chain 2: MYYGISQFSEAYNKILRNSSSHSSCQLVIFVSCLNIDALCATKMLSLLFKKQLVQSQIVPIFGYSELRRHYSQLDDNINSLLLVGFGGVIDLEAFLEIDPQEYVIDTDEKSGEQSFRRDIYVLDAHRPWNLDNIFGSQIIQCFDDGTVDDTLGEQKEAYYKLLELDEESGDDELSGDENDNNGGDDEATDADEVTDEDEEDEDETISNKRGNSSIGPNDLSKRKQRKKQIHEYEGVLEEYYSQGTTVVNSISAQIYSLLSAIGETNLSNLWLNILGTTSLDIAYAQVYNRLYPLLQDEVKRLTPSSRNSVKTPDTLTLNIQPDYYLFLLRHSSLYDSFYYSNYVNAKLSLWNENGKKRLHKMFARMGIPLSTAQETWLYMDHSIKRELGIIFDKNLDRYGLQDIIRDGFVRTLGYRGSISASEFVEALTALLEVGNSTDKDSVKINNDNNDDTDGEEEEDNSAQKLTNLRKRWVSNFWLSWDALDDRKVELLNRGIQLAQDLQRAIFNTGVAILEKKLIKHLRIYRLCVLQDGPDLDLYRNPLTLLRLGNWLIECCAESEDKQLLPMVLASIDENTDTYLVAGLTPRYPRGLDTIHTKKPILNNFSMAFQQITAETDAKVRIDNFESSIIEIRREDLSPFLEKLTLSGLL

Variants of B1 are the subject of assay [1]. The assay is described as follows: GST pull-down, phosphorimaging. The note with it: with PKA-Sld2T84D [modified: 32P-phosphate on the artificial PKA site.
The variants in assay [2] derive from B2. The assay is described as follows: GST pull-down, phosphorimaging. The note with it: with Cdc45 (purified, radiolabelled) [budding yeast], 10 pmoles GST-Dpb11, read off a plot.

As to chain 1 K463E K469E R538E K549E, the response in assay [1] (10 pmoles GST-Dpb11, 1 pmole Sld2T84D input, parent: 0.28, read off a plot) stood at 0.3 pmol; in assay [1] (10 pmoles GST-Dpb11, 3 pmoles Sld2T84D input, parent: 0.64, read off a plot) it was 0.72 pmol; in assay [1] (10 pmoles GST-Dpb11, 10 pmoles Sld2T84D input, parent: 1.6, read off a plot), 1.7 pmol.

As for chain 1 K463E K469E R538E K549E, the response in assay [2] (1 pmole Cdc45 input, parent: 0.11) stood at 0.1 pmol; in assay [2] (3 pmoles Cdc45 input, parent: 0.44), 0.42 pmol; in assay [2] (10 pmoles Cdc45 input, parent: 0.89) it was 0.85 pmol.
